{"source": "patent US20200283478A1", "about": "(Genentech, published 2020)", "binders": {"B1": {"name": "Compound 31 (Ac-CFIPWNLQRIGLLC-NH2) (peptide)", "peptide": "Ac-CFIPWNLQRIGLLC-NH2", "modifications": "disulfide 1-14", "SMILES": "CC[C@H](C)[C@@H]1NC(=O)[C@H](CCCNC(=N)N)NC(=O)[C@H](CCC(N)=O)NC(=O)[C@H](CC(C)C)NC(=O)[C@H](CC(N)=O)NC(=O)[C@H](Cc2c[nH]c3ccccc23)NC(=O)[C@@H]2CCCN2C(=O)[C@H]([C@@H](C)CC)NC(=O)[C@H](Cc2ccccc2)NC(=O)[C@@H](NC(C)=O)CSSC[C@@H](C(N)=O)NC(=O)[C@H](CC(C)C)NC(=O)[C@H](CC(C)C)NC(=O)CNC1=O"}, "B2": {"name": "Compound 32 (Ac-CRLPWNLQRIGLPC-NH2) (peptide)", "peptide": "Ac-CRLPWNLQRIGLPC-NH2", "modifications": "disulfide 1-14", "SMILES": "CC[C@H](C)[C@@H]1NC(=O)[C@H](CCCNC(=N)N)NC(=O)[C@H](CCC(N)=O)NC(=O)[C@H](CC(C)C)NC(=O)[C@H](CC(N)=O)NC(=O)[C@H](Cc2c[nH]c3ccccc23)NC(=O)[C@@H]2CCCN2C(=O)[C@H](CC(C)C)NC(=O)[C@H](CCCNC(=N)N)NC(=O)[C@@H](NC(C)=O)CSSC[C@@H](C(N)=O)NC(=O)[C@@H]2CCCN2C(=O)[C@H](CC(C)C)NC(=O)CNC1=O"}, "B3": {"name": "Compound 67 (Ac-CRLPWNLKRIGLPC-NH2) (peptide)", "peptide": "Ac-CRLPWNLKRIGLPC-NH2", "modifications": "disulfide 1-14", "SMILES": "CC[C@H](C)[C@@H]1NC(=O)[C@H](CCCNC(=N)N)NC(=O)[C@H](CCCCN)NC(=O)[C@H](CC(C)C)NC(=O)[C@H](CC(N)=O)NC(=O)[C@H](Cc2c[nH]c3ccccc23)NC(=O)[C@@H]2CCCN2C(=O)[C@H](CC(C)C)NC(=O)[C@H](CCCNC(=N)N)NC(=O)[C@@H](NC(C)=O)CSSC[C@@H](C(N)=O)NC(=O)[C@@H]2CCCN2C(=O)[C@H](CC(C)C)NC(=O)CNC1=O"}, "B4": {"name": "Compound 70 (Ac-CRLPWNLQRIALPC-NH2) (peptide)", "peptide": "Ac-CRLPWNLQRIALPC-NH2", "modifications": "disulfide 1-14", "SMILES": "CC[C@H](C)[C@@H]1NC(=O)[C@H](CCCNC(=N)N)NC(=O)[C@H](CCC(N)=O)NC(=O)[C@H](CC(C)C)NC(=O)[C@H](CC(N)=O)NC(=O)[C@H](Cc2c[nH]c3ccccc23)NC(=O)[C@@H]2CCCN2C(=O)[C@H](CC(C)C)NC(=O)[C@H](CCCNC(=N)N)NC(=O)[C@@H](NC(C)=O)CSSC[C@@H](C(N)=O)NC(=O)[C@@H]2CCCN2C(=O)[C@H](CC(C)C)NC(=O)[C@H](C)NC1=O"}, "B5": {"name": "Compound 68 (Ac-CRLPWNLQRIGLAC-NH2) (peptide)", "peptide": "Ac-CRLPWNLQRIGLAC-NH2", "modifications": "disulfide 1-14", "SMILES": "CC[C@H](C)[C@@H]1NC(=O)[C@H](CCCNC(=N)N)NC(=O)[C@H](CCC(N)=O)NC(=O)[C@H](CC(C)C)NC(=O)[C@H](CC(N)=O)NC(=O)[C@H](Cc2c[nH]c3ccccc23)NC(=O)[C@@H]2CCCN2C(=O)[C@H](CC(C)C)NC(=O)[C@H](CCCNC(=N)N)NC(=O)[C@@H](NC(C)=O)CSSC[C@@H](C(N)=O)NC(=O)[C@H](C)NC(=O)[C@H](CC(C)C)NC(=O)CNC1=O"}, "B6": {"name": "Compound 69 (Ac-CRLPWNLQRIGAPC-NH2) (peptide)", "peptide": "Ac-CRLPWNLQRIGAPC-NH2", "modifications": "disulfide 1-14", "SMILES": "CC[C@H](C)[C@@H]1NC(=O)[C@H](CCCNC(=N)N)NC(=O)[C@H](CCC(N)=O)NC(=O)[C@H](CC(C)C)NC(=O)[C@H](CC(N)=O)NC(=O)[C@H](Cc2c[nH]c3ccccc23)NC(=O)[C@@H]2CCCN2C(=O)[C@H](CC(C)C)NC(=O)[C@H](CCCNC(=N)N)NC(=O)[C@@H](NC(C)=O)CSSC[C@@H](C(N)=O)NC(=O)[C@@H]2CCCN2C(=O)[C@H](C)NC(=O)CNC1=O"}}, "note": "Bridge positions count the residues as written; N and C are the ends."}
{"biological_target": "T1, His-tagged, full-length PCSK9 (human, UniProt Q8NBP7 31-692)", "T1 construct": "secreted PCSK9 is autocatalytically cleaved into prodomain and catalytic domain + CRD (from S153), which stay associated; also called His-PCSK9; proprotein convertase subtilisin/kexin type 9; not shown: His tag", "T1 sequence (Q8NBP7 31-692 limits assumed)": "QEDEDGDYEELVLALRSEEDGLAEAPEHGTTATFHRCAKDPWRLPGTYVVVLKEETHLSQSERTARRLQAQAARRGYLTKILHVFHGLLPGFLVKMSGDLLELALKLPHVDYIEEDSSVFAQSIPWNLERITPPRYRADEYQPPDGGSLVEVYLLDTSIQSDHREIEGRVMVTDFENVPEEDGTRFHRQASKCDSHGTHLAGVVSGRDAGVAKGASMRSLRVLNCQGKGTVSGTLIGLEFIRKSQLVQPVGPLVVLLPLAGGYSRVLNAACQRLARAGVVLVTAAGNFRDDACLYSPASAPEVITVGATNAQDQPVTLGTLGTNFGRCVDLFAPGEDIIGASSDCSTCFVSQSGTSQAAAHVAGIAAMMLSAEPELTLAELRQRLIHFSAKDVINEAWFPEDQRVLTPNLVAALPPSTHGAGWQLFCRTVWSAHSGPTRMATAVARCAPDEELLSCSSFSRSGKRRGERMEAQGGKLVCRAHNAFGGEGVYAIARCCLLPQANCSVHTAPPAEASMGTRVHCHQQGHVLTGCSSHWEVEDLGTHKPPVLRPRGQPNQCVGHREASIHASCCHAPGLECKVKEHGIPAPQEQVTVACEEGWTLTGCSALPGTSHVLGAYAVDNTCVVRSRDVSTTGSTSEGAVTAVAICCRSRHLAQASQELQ", "assay": "TR-FRET competition (PCSK9/EGF(A) assay); competitor EGF(A)-Fc;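 note: proximity signal from anti-His APC on PCSK9 paired with anti-Fc europium on the Fc ligand, read as normalized TR-FRET ratio across compound dilutions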", "units": {"IC50": "µM"}}
{"binder": "B1", "IC50": "> 50"}
{"binder": "B2", "IC50": "> 50"}
{"binder": "B3", "IC50": "> 50"}
{"binder": "B4", "IC50": "> 50"}
{"binder": "B5", "IC50": "> 50"}
{"binder": "B6", "IC50": "> 50"}
{"biological_target": "T2, His-tagged PCSK9Δhelix (human, UniProt Q8NBP7 31-152; Q8NBP7 168-692)", "T2 construct": "Human PCSK9 M1-Q692 with an engineered TEV site, cut by TEV protease; new N-terminus of the catalytic domain is S-A168; also called His-PCSK9Δhelix; not shown: His tag", "T2 sequence (Q8NBP7 31-152, stated change not applied, chain 1 of 2)": "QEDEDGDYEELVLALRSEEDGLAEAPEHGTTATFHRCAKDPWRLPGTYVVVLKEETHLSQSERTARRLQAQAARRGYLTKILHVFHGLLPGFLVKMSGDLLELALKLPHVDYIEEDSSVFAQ", "T2 sequence (Q8NBP7 other isoform, or with tags, fused parts or gaps mutant, chain 2 of 2)": "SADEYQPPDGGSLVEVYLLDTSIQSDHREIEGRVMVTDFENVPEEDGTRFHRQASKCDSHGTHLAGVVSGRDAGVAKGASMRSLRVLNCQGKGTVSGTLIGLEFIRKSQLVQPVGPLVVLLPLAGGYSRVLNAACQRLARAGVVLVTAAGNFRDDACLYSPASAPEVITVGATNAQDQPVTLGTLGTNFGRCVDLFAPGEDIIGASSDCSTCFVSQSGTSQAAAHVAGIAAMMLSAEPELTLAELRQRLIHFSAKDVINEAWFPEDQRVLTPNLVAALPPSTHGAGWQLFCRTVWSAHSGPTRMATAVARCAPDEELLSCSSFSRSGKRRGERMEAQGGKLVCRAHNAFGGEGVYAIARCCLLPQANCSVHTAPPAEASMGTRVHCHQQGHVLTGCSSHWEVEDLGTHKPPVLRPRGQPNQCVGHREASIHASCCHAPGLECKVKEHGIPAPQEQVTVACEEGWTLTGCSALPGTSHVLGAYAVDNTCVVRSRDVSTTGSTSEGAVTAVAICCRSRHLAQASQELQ", "assay": "TR-FRET competition (PCSK9Δhelix/Ab20 assay); competitor Ab20", "units": {"IC50": "µM"}}
{"binder": "B1", "IC50": 2.4}
{"binder": "B2", "IC50": 0.97}
{"binder": "B3", "IC50": 0.699}
{"binder": "B4", "IC50": 7.26}
{"binder": "B5", "IC50": 0.939}
{"binder": "B6", "IC50": 6.64}
